Results reported in IntAct's records for PubMed 18256285.

Target: sdcb1_human SDCBP (UniProt O00560)
Chain of UniProt O00560 (O00560 whole entry): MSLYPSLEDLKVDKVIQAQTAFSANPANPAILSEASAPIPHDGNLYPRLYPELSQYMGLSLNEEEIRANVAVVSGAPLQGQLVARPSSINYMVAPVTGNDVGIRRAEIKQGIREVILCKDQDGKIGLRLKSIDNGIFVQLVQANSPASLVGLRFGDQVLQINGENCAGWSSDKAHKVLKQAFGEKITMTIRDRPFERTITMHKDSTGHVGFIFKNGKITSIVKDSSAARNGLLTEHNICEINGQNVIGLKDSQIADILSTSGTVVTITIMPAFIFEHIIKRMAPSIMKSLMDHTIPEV

Substance | effect of a mutation on the interaction
Frizzled-7 (Homo sapiens) (from UniProt O75084) T572A | disrupting interaction
Frizzled-7 (Homo sapiens) (from UniProt O75084) T572A;V574A | disrupting interaction
Frizzled-7 (Homo sapiens) (from UniProt O75084) V574A | decreasing interaction
